In PMC10076392 (2023):

B1: PBP1b (aa58-804) (enzyme)
chain: KPRGKRGWLWLLLKLAIVFAVLIAIYGVYLDQKIRSRIDGKVWQLPAAVYGRMVNLEPDMTISKNEMVKLLEATQYRQVSKMTRPGEFTVQANSIEMIRRPFDFPDSKEGQVRARLTFDGDHLATIVNMENNRQFGFFRLDPRLITMISSPNGEQRLFVPRSGFPDLLVDTLLATEDRHFYEHDGISLYSIGRAVLANLTAGRTVQGASTLTQQLVKNLFLSSERSYWRKANEAYMALIMDARYSKDRILELYMNEVYLGQSGDNEIRGFPLASLYYFGRPVEELSLDQQALLVGMVKGASIYNPWRNPKLALERRNLVLRLLQQQQIIDQELYDMLSARPLGVQPRGGVISPQPAFMQLVRQELQAKLGDKVKDLSGVKIFTTFDSVAQDAAEKAAVEGIPALKKQRKLSDLETAIVVVDRFSGEVRAMVGGSEPQFAGYNRAMQARRSIGSLAKPATYLTALSQPKIYRLNTWIADAPIALRQPNGQVWSPQNDDRRYSESGRVMLVDALTRSMNVPTVNLGMALGLPAVTETWIKLGVPKDQLHPVPAMLLGALNLTPIEVAQAFQTIASGGNRAPLSALRSVIAEDGKVLYQSFPQAERAVPAQAAYLTLWTMQQVVQRGTGRQLGAKYPNLHLAGKTGTTNNNVDTWFAGIDGSTVTITWVGRDNNQPTKLYGASGAMSIYQRYLANQTPTPLNLVPPEDIADMGVDYDGNFVCSGGMRILPVWTSDPQSLCQQSEMQQQPS

What was measured:
Assay in all cases: BLI
[1] = biological target: FtsB-FtsL-FtsQ complex, His-tagged (E. coli strain K12, UniProt P0A6S5 1-103; P0AEN4 1-121; P06136 1-276, S3N | R4K | V5L)
PBP1b (aa58-804) = biological target: B1
[2] = biological target: FtsB-FtsL-FtsQ complex, analyte of the BLI assay (E. coli strain K12, UniProt P0A6S5 1-103; P0AEN4 1-121; P06136 1-276, S3N | R4K | V5L)

Kd [1] [nM] | Kd (PBP1b (aa58-804)) [nM] | Kd [2] [nM] | Binder
930 | – | – | B1
– | 530 | 180 | FtsW-FtsI complex, His-tagged (complex) chain 1: MRLSLPRLKMPRLPGFSILVWISTALKGWVMGSREKDTDSLIMYDRTLLWLTFGLAAIGFIMVTSASMPIGQRLTNDPFFFAKRDGVYLILAFILAIITLRLPMEFWQRYSATMLLGSIILLMIVLVVGSSVKGASRWIDLGLLRIQPAELTKLSLFCYIANYLVRKGDEVRNNLRGFLKPMGVILVLAVLLLAQPDLGTVVVLFVTTLAMLFLAGAKLWQFIAIIGMGISAVVLLILAEPYRIRRVTAFWNPWEDPFGSGYQLTQSLMAFGRGELWGQGLGNSVQKLEYLPEAHTDFIFAIIGEELGYVGVVLALLMVFFVAFRAMSIGRKALEIDHRFSGFLACSIGIWFSFQALVNVGAAAGMLPTKGLTLPLISYGGSSLLIMSTAIMMLLRIDYETRLEKAQAFVRGSR chain 2: MKAAAKTQKPKRQEEHANFISWRFALLCGCILLALAFLLGRVAWLQVISPDMLVKEGDMRSLRVQQVSTSRGMITDRSGRPLAVSVPVKAIWADPKEVHDAGGISVGDRWKALANALNIPLDQLSARINANPKGRFIYLARQVNPDMADYIKKLKLPGIHLREESRRYYPSGEVTAHLIGFTNVDSQGIEGVEKSFDKWLTGQPGERIVRKDRYGRVIEDISSTDSQAAHNLALSIDERLQALVYRELNNAVAFNKAESGSAVLVDVNTGEVLAMANSPSYNPNNLSGTPKEAMRNRTITDVFEPGSTVKPMVVMTALQRGVVRENSVLNTIPYRINGHEIKDVARYSELTLTGVLQKSSNVGVSKLALAMPSSALVDTYSRFGLGKATNLGLVGERSGLYPQKQRWSDIERATFSFGYGLMVTPLQLARVYATIGSYGIYRPLSITKVDPPVPGERVFPESIVRTVVHMMESVALPGGGGVKAAIKGYRIAIKTGTAKKVGPDGRYINKYIAYTAGVAPASQPRFALVVVINDPQAGKYYGGAVSAPVFGAIMGGVLRTMNIEPDALTTGDKNEFV
